How the values were obtained:
[1] = system: human hepatoma cells HepG2; test: Treatment of HepG2 cells in vitro with rhAFP; assay type: cell-based
Method: Results: Without treatment, tumors were determined at 5th-7th day after transplantation.

[2] = system: cells of B-cellular lymphoma Raji; test: Nude line mice implanted with Raji lymphoma cells, tumor size; assay type: in vivo; details: intraperitoneally daily for 20 days, 10 animals, listed as AFP
From the text: Anticancer preparations on the base of rAFP and of modified forms thereof may be used for inhibition of the growth of malignant neoplasms, such as primary or metastatic cancer of the liver, blood cancer (leucosis, myeloblastoma, lymphoma), breast cancer, prostate cancer. In order to determine the sensitivity of tumor cells to rAFP, it is possible to use different methods both in vitro and also in vivo. The method of determining activity in vitro is described in the preceding example 8. In order to determine the oncosuppressive action of preparations on the base of AFP in vivo, animal models may be used, for example Nude mice with subcutaneously or intraperitoneally implanted human lines of cancer cells, such as Raji, HepG2, LnCap, MCF-7 and others. For example, cells of B-cellular lymphoma Raji were administered subcutaneously in an amount of 1-5×10^6 per mouse. Administration of the rAFP and derivatives thereof was begun 7 days […] implantation of tumor cells intraperioneally or intravenously in an amount of 1-10 mg/kg. The physiological buffered solution (PBS) was used as a control. The size of the tumor was evaluated by daily measurements with the aid of a micrometer.

[3] = system: PHA-activated CBA thymocytes; test: PHA-mediated thymocyte proliferation in vitro; assay type: cell-based, mouse CBA; details: AFP alone, 24 hrs after 48 hrs PHA 1.5 μg/ml
[4] = system: human hepatoma cells HepG2; test: Human hepatoma xenografts in Nude mice, rhAFP monotherapy; assay type: in vivo, Balb C/Nude mice
Method: To study tumor-suppression upon monotherapy with rhAFP we used in vivo model of human hepatoma xenografts in Nude mice. Balb C/Nude mice 8/group were implanted with 12×10^6 human hepatoma cells HepG2 s/c. rhAFP 10 mg/kg was injected i/p 9 times each 48 hrs during 16 days. Effectiveness of treatment was assessed by measuring and weighting of the tumor at the 30th day of experiment and by comparison of the quantity of mice with tumor during time of observation.

[5] = system: embryonal fibroblasts of the lung and human retina; test: Growth of primary culture of human embryonal fibroblasts, [H3]-thymidine; assay type: cell-based; details: 24 hours, FIG. 7
Method: Proliferation of the cells was measured by a standard method of [H^3]-thymidine incorporation during the last four hours of culture and expressed in percent of the stimulation of growth in test cultures in respect of a control without AFP.
The primary culture of embryonal fibroblasts of the lung and human retina was obtained by treating with 0.25% trypsin solution corresponding tissues of 5-10 week embryos obtained after legal abortions. The cells were cultures in an RPMI-1640 medium in the presence of a 10% calf fetal serum (CFS). The cytostatic activity of AFP was measured as earlier described (Semenkova, L. 1997, Tumor Biol. 18, 261-274; Dudich E. I., et al., 1998, Tumor Biol. 198, 30-40). Cells in an amount of 4×10^4 in a 0.15 ml medium were intensively washed with a fresh to medium and placed in each cell of a 96-lune plate, then different doses of AFP were added and cultures 24 hours. Proliferation of the cells was measured by a standard method by the inclusion of [H^3]-thymidine during the last four hours of culturing.

[6] = system: cells of B-cellular lymphoma Raji; test: Suppression of growth of Raji cells in vitro, [H3]-thymidine incorporation; assay type: cell-based, human; details: 12 hours with AFP, dose-dependent, FIG. 5
Method: The functional activity of rAFP and the modified forms thereof were determined according to its capability of suppressing the growth of cells of B-cellular lymphoma Raji in the culture in vitro, as earlier described (Semenkova, L. 1997, Tumor Biol. 18, 261-274; Dudich E. I., et al., 1998, Tumor Biol. 198, 30-40). Preliminarily washed by a fresh medium, Raji cells were placed into each cell of a 96-alverolar plate according to 5×10^3 in 0.1 ml of a medium RPMI-1640 in the presence of a 10% fetal calf serum, then different doses of AFP were added for 12 hours. Proliferation of the cells was measured by a standard method by the introduction of [H^3]-thymidine during the last 4 hours of culturing. For comparison, the dose-dependent reactivity was studies for two samples of AFP of embryonal origin embrAFP and yeast rAFP (FIG. 5). […] Similarly, in order to determine the activity to preparations on the base of AFP in vitro, any other lines of cancer cells may be used that are sensitive to the suppressive action of AFP, such as human hepatocarcinoma HepG2, breast cancer MCF-7, prostate cancer LnCap, myeloblastoma U-937 and others (Semenkova, L. 1997, Tumor Biol. 18, 261-274; Dudich E. I., et al., 1998, Tumor Biol. 198, 30-40).

[7] = system: syngeneic leukemia cells P388; test: Syngeneic acute leukemia P388 in BDF1 mice, survival over 30 days; assay type: in vivo; details: rhAFP 25.0 mg/kg
From the text: We have studied the effect of combined treatment with AFP+Dox of acute leukemia in mice BDF1 with transplanted intrapleurally syngeneic P388 leukemia cells. BDF-1 mice (84 male, 28 mice per treatment) were implanted with lethal dose of 12×10^6 syngeneic leukemia cells P388 in the pleural region. Animals were subjected to monotherapy with Dox and combined therapy with rhAFP/Dox upon simultaneous single injection of drugs in various doses. Animal survival was compared over 30 days.

B1: rhAFP: recombinant human alpha-fetoprotein secreted by yeast Saccharomyces cerevisiae YBS723/pKX, glycosylated, mature human AFP sequence SEQ ID NO:2 (protein, listed as Homo sapiens)
chain: TLHRNEYGIASILDSYQCTAEISLADLATIFFAQFVQEATYKEVSKMVKDALTAIEKPTGDEQSSGCLENQLPAFLEELCHEKEILEKYGHSDCCSQSEEGRHNCFLAHKKPTPASIPLFQVPEPVTSCEAYEEDRETFMNKFIYEIARRHPFLYAPTILLWAARYDKIIPSCCKAENAVECFQTKAATVTKELRESSLLNQHACAVMKNFGTRTFQAITVTKLSQKFTKVNFTEIQKLVLDVAHVHEHCCRGDVLDCLQDGEKIMSYICSQQDTLSNKITECCKLTTLERGQCIIHAENDEKPEGLSPNLNRFLGDRDFNQFSSGEKNIFLASFVHEYSRRHPQLAVSVILRVAKGYQELLEKCFQTENPLECQDKGEEELQKYIQESQALAKRSCGLFQKLGEYYLQNAFLVAYTKKAPQLTSSELMAITRKMAATAATCCQLSEDKLLACGEGAADIIIGHLCIRHEMTPVNPGVGQCCTSSYANRRPCFSSLVVDETYVPPAFSDDKFIFHKDLCQAQGVALQTMKQEFLINLVKQKPQITEEQLEAVIADFSGLLEKCCQGQEQEVCFAEEGQKLISKTRAALGV
modifications: yeast glycosylation
[1]
  effect on HepG2 cells in vitro: dose-dependent growth suppression and apoptosis
[2]; 0.5 mg AFP per injection
  Results (number of animals - tumor outcome): 2-stabilization
[2]; 0.5 mg AFP per injection, animals where tumor did not develop
  Results (number of animals - tumor outcome): 3-tumor did not develop
[2]; 0.5 mg AFP per injection, animals with 50% tumor inhibition
  Results (number of animals - tumor outcome): 5-50% inhibition
[2]; 1 mg AFP per injection
  Results (number of animals - tumor outcome): 2-stabilizaton
[2]; 1 mg AFP per injection, animals where tumor did not develop
  Results (number of animals - tumor outcome): 3-tumor did not develop
[2]; 1 mg AFP per injection, animals with 50% tumor inhibition
  Results (number of animals - tumor outcome): 5-50% inhibition
[2]; 2 mg AFP per injection
  Results (number of animals - tumor outcome): 2-stabilization
[2]; 2 mg AFP per injection, animals where tumor did not develop
  Results (number of animals - tumor outcome): 3-tumor did not develop
[2]; 2 mg AFP per injection, animals with 50% tumor inhibition
  Results (number of animals - tumor outcome): 5-50% inhibition
[3]
  proliferation of PHA-stimulated thymocytes in response to AFP: distinct dose-dependent growth suppression
[4]; rhAFP 10 mg/kg i/p 9 times each 48 hrs during 16 days
  tumor growth in the period of treatment: tumors did not grow in the period of treatment
[4]; rhAFP 10 mg/kg i/p 9 times each 48 hrs, tumor weighed at 30th day
  inhibition of total tumor weight relatively to untreated control: 90%
[5]
  stimulating effect on cellular growth in respect to the control: 50-90%
[6]
  cytostatic activity, inhibition of growth of Raji cells: expressed cytostatic activity
[7]
  Survival more 30 days: 0
  T/C %: 118%
[7]; single injection
  T (survival, days): [15.7/21.8] 7.7 [6.4/ days
